Assay results published in the domain aggregation screens of Martell et al. (2025).

Test: soluble fraction after stress (log2 fold change); higher = more stays soluble; pooled small domains, quantitative proteomics
Details: stress: 50 degC
Method in brief: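 Custom libraries of small protein domains were pooled and measured in a high-throughput format, with quantitative proteomics as the read-out. Each library was stressed at 50°C. The value is the log2 fold change in the amount of each protein that stays soluble after stress, used as a measure of aggregation propensity; higher values mean more of the protein stays soluble.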

Sequence	soluble fraction (log2)
HMTSQVTVHVVGAVEKPGVVTLDAPSRVQDALEAAGGALPEAELSGVNLARELFDGEQIVVPAQGEDV	-0.0113
HMGGVEWLTHPIGPRDSLQVLARAGLEARPTSDGDYEIYGQERWPQRDQARLMGWLRRFGQWVWQALYDK	-0.378
HMSQVHYAVLFKNASAAEATEIVTYARETLGVQDIKINANGDILVPEDKVEEMRVSMSIAGFPK	0.22
HMYTVQQLARLAGITPRTLRHYDAIGLLKPTRVGENGYRYYGSEALLRLQSILLYRELDMPLEDIRRVLDS	-3.15
HMETAVMPDVMKLDSTTAIQALKDKGFATIETYEVKSDRPAGVVVRQSETADSVVALSKEILLGVSNGADY	0.304
HMTVSLLQTRQRLQALADLGHYKGDLGAAWGPDAIEALKKAQATLGVTVDGKWGPQTEDAIQVALKVQ	-0.284
HMNVGKYILTLAAKEGYSQSDVARRTGISRQMLSYIIAGERKLTLPQALKIESLLSLKTGTLILMQDED	-3.41
HMFDLSQRQEQIIEIVRKHGPITGEKIADLLYVTRAALRPDLAILTMSGYLEAKPRVGYTYK	-1.2
HMEKIRIQKYLSERGVMSRRAADSALAEGRIAVNGVTARPGDKIDPSSDTLTIDGRIVTTGTAP	0.00802
HMDHAVINSEEVTIKDLSEKIGVSAAEIIKALFTEGIIKTINDKIEYEYAQYVAGMFGVELTLKL	0.277
HMQNNWFYEENGQRKGPVSENEMVQFIKSSVISHGTSVWKQGFPDWLKVENTDLRVHLDNSAP	0.136
HMNQKKFIQADYEDRLFDHLAFEVKDMEKIISMMRREKFTITDEPFRLSPTGSLIAFVEDPDRTLIELIER	-0.32
HMIENGILELKGKTGVAQTVLRPSGKVLIDDEIYDAVALTGYIEKADKVLVTKVEATQLYVEK	0.0576
HMNVQGFVFDLAEPLDKVPSIEGFPLKLEDPLTLVAAVNKDRSINALFAELSKLNIKIKSMRNE	0.15
HMHGSSSTVPPVKGLSFEQARLTLAENDLTVEISDSIYDRNARPGTVVESWPRAGSVVKQGRQVYVTVTAF	-0.922
HMIMMTLGEKIRSIRKAKGMTQQELAEKLNTTKQTIGKYEKGIVTNLPLFRINELARALSTTPAYLTGW	-1.41
HMSTEAFLGTEGEVVLPLLPDGLGKIRLHVADQDVELPARTGGEPIQIRERVVVVRFRDGIAEVEPAP	0.191
HMGQGAASAPLRELGVDPVSEKQMVLKDGRFGPYVTDGETNASLRKGDEVETITDERASELLQMRRDAGPS	-0.195
HMETITDRLNRRSLELNVSQADIIRTTGAGRGTVSGWFSGANAPSAKYLESLAVALKTSTTWLLSGKD	-0.741

Sequence	soluble fraction (log2)
HMGMTNRIKELRKAKGYRQEDLAAALGVSRQTIIAVENNKYNPTLELAMKLARHLQTTVEELFQL	-0.758
HMNKKEIISVLEKIIPPSQIKNINIFGSELVIDLNIDNPSLHAKKKLEKSIMSSFDENLKIIVNFSVE	-0.00924
HMARDPWDVLGVAKTATNDEIKRAFKRQAMMTHPDKQGGSEERFKEVNEAYSHIKDEQSRAKYQNSQ	0.238
HMSDAPLLSIRSLAVAFDGTRVVDGVSFDVARGEVVALVGESGSGKTVTGLSLLDLVPPPGRRVGGEV	0.0423
HMGTAESIRLFLSSGLIKGVGEALAGRIVDTFGTDTFDIIENHPELLAGVKGISHRLAMSIYESFSQHIGV	-1.03
HMLPVYSITEAAERLDIPASTIKWYADRFASYISPSKGKGRKRFTPEDLATLQKIHELSQDHTTEEAEAML	-0.281
HMTLTPEQQAARRSEIVDIALRLIAENGFQKTSMREIADLAKMGKSSLYDFFKTKDEIAVYAMEKK	-0.283
HMVSVLGRRIKELRLQNSMTQMQLAKKLGYKGNSLVAGWELGKNYPSVSSIKRLSEIFDTDLMKYVG	-1.65
HMAAEEAFPGGRIVQNAEENRLQILFDEIPGEDVRAALKSHGFRWSPKNKAWQRQLTQNAEYDARRILGI	-0.00473
HMLNQIGVSQKEFDQIHTAIKIALKTSSLTPTGITEKLPKFPPEKTADILRWMADNKEVLLNSEEKYELKT	-0.0315
HMSKQDRRIRRTRRLLKESLIQLMQEKEFMNISVREVTERADLNRGTFYLHYQDTRHLLQDIENETL	-3.25
HMSLDTASDKELLGLIVSEPIATRVLDAFRTLDATLFRTTPAELAAAAGVSSEHAQKIKAVAEIAARMLKP	-0.377
HMEGMSIYVTVNGDMVHLTGKMSYVFVDVFEHIDFDLSKPQGSGIVTKLNGRDAQYMEEIRSGDMIEIYWR	-0.133
HMFDTVTIGRKIAELRKAHNMTQFELADALGISFQAVSNWERGASMPDISKLPELAEIFGVTIDEVLGK	-0.839
HMVGAEDISKPMNLGALMRTAHAFGASFFFTINAHPKVRHAYNSDTSRSFDHMPYYPWDTMEE	0.129
HMEKLNYSISNEEQGQRIDKYLSLMIEGKSRSFIQGLIDDKKVMANGKVIKSNYKLKNNDEITVEMPDPI	-0.155
HMENKLIELTLSLDKSERLDKILTQELSHTRSVIQQWLKSGFVSVNGEIVKANYKAKDGDHVTIQIE	-0.198
HMEASVNAPMPGKIVSVSVSEGQQVNAGDVLLILEAMKMQNEITADAAGTVKAINVNAGQSVKNGDSLVIL	0.469
